Consider one molecule from publication PMC4027212.

This data set addresses FANCI (human, UniProt Q9NVI1 1-1328). Briefly: EMSA.

Chain of FANCI (Q9NVI1 whole entry): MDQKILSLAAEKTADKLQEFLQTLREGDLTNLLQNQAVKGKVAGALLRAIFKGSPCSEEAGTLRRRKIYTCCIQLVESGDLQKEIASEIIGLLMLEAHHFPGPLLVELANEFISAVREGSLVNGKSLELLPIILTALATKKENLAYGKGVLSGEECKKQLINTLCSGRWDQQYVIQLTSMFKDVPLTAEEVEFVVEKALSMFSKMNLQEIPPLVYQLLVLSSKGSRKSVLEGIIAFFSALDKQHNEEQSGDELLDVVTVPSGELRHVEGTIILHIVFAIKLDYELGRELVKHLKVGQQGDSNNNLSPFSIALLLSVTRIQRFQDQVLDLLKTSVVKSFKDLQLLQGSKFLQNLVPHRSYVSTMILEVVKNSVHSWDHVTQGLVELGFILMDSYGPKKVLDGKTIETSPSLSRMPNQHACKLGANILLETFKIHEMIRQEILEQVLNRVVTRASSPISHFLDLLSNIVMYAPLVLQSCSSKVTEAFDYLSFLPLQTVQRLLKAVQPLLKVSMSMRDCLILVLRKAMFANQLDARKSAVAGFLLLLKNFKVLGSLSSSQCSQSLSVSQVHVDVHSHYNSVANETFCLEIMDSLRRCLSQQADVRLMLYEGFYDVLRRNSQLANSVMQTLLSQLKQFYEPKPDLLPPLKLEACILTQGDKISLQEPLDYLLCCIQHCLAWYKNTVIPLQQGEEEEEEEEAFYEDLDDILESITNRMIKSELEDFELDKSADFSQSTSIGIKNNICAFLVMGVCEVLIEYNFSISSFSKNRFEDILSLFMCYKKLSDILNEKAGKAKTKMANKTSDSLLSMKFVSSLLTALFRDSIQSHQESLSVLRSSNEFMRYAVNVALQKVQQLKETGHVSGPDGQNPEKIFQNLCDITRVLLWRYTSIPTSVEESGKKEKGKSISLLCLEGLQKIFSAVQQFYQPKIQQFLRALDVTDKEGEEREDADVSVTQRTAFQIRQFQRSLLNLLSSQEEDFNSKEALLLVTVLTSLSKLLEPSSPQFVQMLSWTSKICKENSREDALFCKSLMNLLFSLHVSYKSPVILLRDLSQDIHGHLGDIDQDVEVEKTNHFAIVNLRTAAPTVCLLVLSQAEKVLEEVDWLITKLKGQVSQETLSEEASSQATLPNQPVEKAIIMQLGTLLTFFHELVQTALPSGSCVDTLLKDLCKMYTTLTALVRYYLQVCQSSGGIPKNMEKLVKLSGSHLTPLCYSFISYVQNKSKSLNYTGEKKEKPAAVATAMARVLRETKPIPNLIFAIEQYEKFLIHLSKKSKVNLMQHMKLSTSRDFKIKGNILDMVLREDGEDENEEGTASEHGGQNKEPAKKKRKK

B1: Splayed arm (O2+O9) (structured_DNA)
DNA 1: AAAAAAAAAAAAAAAAAAAAAAAAAAAAAAAAAAAAAAAAGTAGAGTCGACGGTGCTGGGATCCAACATGTTTTCAATCTG
DNA 2: CAGATTGAAAACATGTTGGATCCCAGCACCGTCGACTCTACAAAAAAAAAAAAAAAAAAAAAAAAAAAAAAAAAAAAAAAA
For the molecule B1, the binding result is reported as “binds”.
